Experiment [1] has as its target T1, anti-BMP-7 antibodies of the commercial ELISA (R&D Systems ELISA Duoset Cat#DY354).
T1 construct: also called antibody; ELISA antibody
The experiment is described as follows: sandwich ELISA (R&D Systems BMP7 ELISA Cat#DY354), BMP-7 protein titrated, % ELISA signal; the EC50 column carries no unit, the concentration axis is in ug/mL. In general terms: In an ELISA, binding on a coated surface is turned into a signal by an enzyme label.

The target of experiment [2] is T2, ActRIIa Fc fusion (R&D Systems) (UniProt P27037 20-134, limits assumed).
T2 construct: Bought receptor/Fc fusion; not shown: Fc part of the bought fusion
T2 sequence (P27037 20-134 limits assumed): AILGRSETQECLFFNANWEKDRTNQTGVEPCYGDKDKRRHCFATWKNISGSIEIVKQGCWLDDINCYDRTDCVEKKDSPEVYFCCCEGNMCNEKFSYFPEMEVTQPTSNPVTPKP
Briefly: AlphaScreen competition against biotinylated Y65N/S120D BMP-7. The protocol: (§1) The Y65N/S120D variant of BMP-7 was also biotinylated for use in AlphaScreen assays using NHS-biotin. Bioactivity of the biotinylated protein was confirmed. AlphaScreen assays were performed to determine the binding affinity of selected BMP-7 variants for Fc fusions of the receptors BMPRIa, BMPRIb, ActRIIa, and BMPRII and the inhibitor noggin (R&D Systems). AlphaScreen assays were also performed to determine the affinity of selected variants for an anti-BMP-7 monoclonal antibody (R&D Systems mAb 3541). In all cases, 12-point binding curves were obtained in triplicate. Each data point corresponds to the luminescence produced from a solution comprising 10 uL of serially diluted BMP-7 variant, 10 uL receptor, inhibitor, or antibody, 10 uL biotinylated BMP-7, 10 uL AlphaScreen™ acceptor beads, and 10 uL AlphaScreen™ donor beads. Prism was used to calculate EC50 values for selected experiments.
Background: Alpha assays give light when donor and acceptor beads are brought close together.

Experiment [3] has as its target T3, noggin Fc fusion (R&D Systems) (UniProt Q13253 28-232, limits assumed).
T3 construct: Bought noggin/Fc fusion; not shown: Fc part of the bought fusion
T3 sequence (looked up): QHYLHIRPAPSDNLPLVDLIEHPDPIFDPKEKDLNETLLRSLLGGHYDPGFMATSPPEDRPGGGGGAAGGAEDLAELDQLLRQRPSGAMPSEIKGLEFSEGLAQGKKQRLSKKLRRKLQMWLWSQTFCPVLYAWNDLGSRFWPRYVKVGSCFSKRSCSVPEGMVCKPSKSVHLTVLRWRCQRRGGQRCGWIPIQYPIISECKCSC
The description is as above. The method, then:
as §1

In experiment [4] the target is T4, BMPRIb Fc fusion (R&D Systems) (UniProt O00238 14-126).
T4 construct: Bought receptor/Fc fusion; also called ALK-6; not shown: Fc part of the bought fusion
T4 sequence (looked up): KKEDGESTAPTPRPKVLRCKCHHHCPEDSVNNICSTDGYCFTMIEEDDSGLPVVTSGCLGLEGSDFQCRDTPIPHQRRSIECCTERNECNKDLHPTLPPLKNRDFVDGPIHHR
The description is as above. The method, then: as §1

Experiment [5] deals with T5, BMPRII Fc fusion (R&D Systems) (UniProt Q13873 27-151, limits assumed).
T5 construct: Bought receptor/Fc fusion; not shown: Fc part of the bought fusion
T5 sequence (looked up): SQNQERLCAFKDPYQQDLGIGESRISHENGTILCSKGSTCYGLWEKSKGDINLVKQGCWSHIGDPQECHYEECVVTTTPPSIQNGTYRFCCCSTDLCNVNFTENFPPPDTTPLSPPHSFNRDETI
The description is as above. The protocol:
as §1

Experiment [6] deals with T2, ActRIIa Fc fusion (R&D Systems). Briefly: AlphaScreen competition; EC50 relative to wild type BMP-7 (R&D Systems). The protocol:
as §1

The target of experiment [7] is T3, noggin Fc fusion (R&D Systems). The experiment is described as above. The protocol: as §1
Experiment [8] deals with T4, BMPRIb Fc fusion (R&D Systems). The experiment is described as above. The method, then:
as §1

Experiment [9] concerns the target T5, BMPRII Fc fusion (R&D Systems). Described as above. The method, then: as §1
Experiment [10] addresses T6, BMPRIb receptor-Fc fusion (UniProt O00238 14-126).
T6 construct: BMP receptor-Fc fusion, detected with anti-human IgG-HRP; also called ALK-6
T6 sequence (looked up): T4 sequence (looked up)
Briefly: ELISA-like, fixed volume of conditioned media, receptor-Fc.

The target in experiment [11] is T7, BMPRII receptor-Fc fusion (UniProt Q13873 27-151, limits assumed).
T7 construct: BMP receptor-Fc fusion, detected with anti-human IgG-HRP
T7 sequence (looked up): T5 sequence (looked up)
Described as above.

For experiment [12], the target named is T8, ActRIIa receptor-Fc fusion (UniProt P27037 20-134, limits assumed).
T8 construct: BMP receptor-Fc fusion, detected with anti-human IgG-HRP
T8 sequence (P27037 20-134 limits assumed): as the sequence (P27037 20-134 limits assumed) above
The description is as above.

Experiment [13] addresses T9, BMPRIa receptor-Fc fusion (UniProt P36894 24-152, limits assumed).
T9 construct: BMP receptor-Fc fusion; also called ALK-3
The experiment is described as above.

Experiment [14] has as its target T10, BMPRII receptor/Fc fusion (R&D Systems) (UniProt Q13873 27-151, limits assumed).
T10 construct: not shown: Fc portion of the fusion
T10 sequence (looked up): T5 sequence (looked up)
Briefly: plate direct binding assay, receptor-Fc detection, 12-point dilution of conditioned media. The protocol:
(§2) The affinity of human and variant BMP-7 for several BMP receptors (ActRIa, BMPRIb, ActRIIa, and BMPRII) was measured using an ELISA-like assay, described below. 96-well plates were coated with a capture antibody (R&D Systems BMP-7 ELISA Duoset DY354, part #840971) by diluting the antibody to 2 μg/mL in PBS, applying 50 μL/well, and incubating overnight or over the weekend at 4° C., in a humidified chamber. Excess liquid was removed from each plate. The plates were blocked by adding 175 μL blocking solution (1% BSA and 5% sucrose in PBS) to each well and incubating 1-2 hours at room temperature in a humidified chamber. The plates were then washed using an automated plate washer. 50 μL of BMP-7 containing solution (for example, diluted conditioned media obtained from the BMP-7 expression protocol above, or purified recombinant human BMP-7 of a known concentration) was added to each well and incubated 1.5-2 hours at room temperature in a humidified chamber. The plates were then washed using an automated plate washer. 50 μL of 5 μg/mL BMP receptor-Fc fusion in PBS was added to each well and incubated 1.5 hours at room temperature in a humidified chamber. The plates were then washed using an automated plate washer. 50 μL of 1:10,000 diluted anti-human IgG-HRP conjugate in secondary antibody dilution buffer (1% BSA in PBS, filtered through a 0.2 […] filter) was added to each well and incubated 30 minutes at room temperature in a humidified chamber. The plates were then washed using an automated plate washer. 50 μL of pre-mixed TMB substrate (BD Pharmingen #555214) was added to each well and incubated for 10-20 minutes at room temperature in the dark. 25 μL of 2N H₂SO₄ was added to each well. Absorbance readings at 450 nm were taken using a 540 nm wavelength correction.
(§3) To further characterize receptor binding, dose-response binding assays, using 12-point serial dilutions from conditioned media, were conducted for selected Library 1 variants.

The target in experiment [15] is T11, ActRIIa receptor/Fc fusion (R&D Systems) (UniProt P27037 20-134, limits assumed).
T11 construct: not shown: Fc portion of the fusion
T11 sequence (P27037 20-134 limits assumed): as the sequence (P27037 20-134 limits assumed) above
The description is as above. The protocol: as §2, §3

This note sets out measurements from patent US20060058231A1 (Xencor, published 2006).

Numbering of substitutions follows the chain as printed. Numbers in names are those of the source.

T9 sequence (P36894 24-152 limits assumed): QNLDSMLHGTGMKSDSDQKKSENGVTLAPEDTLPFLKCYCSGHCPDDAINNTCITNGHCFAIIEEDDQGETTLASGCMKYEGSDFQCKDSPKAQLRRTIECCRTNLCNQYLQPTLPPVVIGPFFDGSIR

B1: BMP-7 variant 504 (Y65N/S120D) (ligand)
chain: STGGKQRSQNRSKTPKNQEALRMASVAENSSSDQRQACKKHELYVSFRDLGWQDWIIAPEGYAANYCEGECAFPLNSYMNATNHAIVQTLVHFINPETVPKPCCAPTQLNAISVLYFDDDSNVILKKYRNMVVRACGCH
notes: Purified, unlabeled variant; also called v504
By EC50 is commonly meant the midpoint of the concentration-response curve. A lower EC50 goes with higher potency in that assay. In experiment [1], B1 gave a concentration giving a half-maximal response (EC50) of 8.21 ng/mL.

B2: wild type human BMP-7 (R&D Systems) (ligand)
chain: B1 chain with N65Y, D120S
notes: Bought recombinant protein; It describes BMPs as dimers; also called wt; recombinant human BMP-7
Take B2: the EC50 stood at 0.107 µg/mL in experiment [2], 2.85 µg/mL in [3], 0.0499 µg/mL in [4] and 0.23 µg/mL in experiment [5].

B3: recombinant human BMP-7 (R&D Systems) (ligand)
chain: B1 chain with N65Y, D120S
notes: Bought protein; also called wild type human BMP-7 (R&D Systems); wt
Take B3: a half-maximal response in [1] (EC50) required 1.12 ng/mL.

B4: BMP-7 variant 565 (Y65N/F93T/R129D) (ligand)
chain: B1 chain with F93T, D120S, R129D
notes: Purified variant; also called v565
In turn, B4 gave an EC50 in experiment [1] of 6.88 ng/mL.

B5: BMP-7 variant 526 (K39S/S120D/R134E) (ligand)
chain: B1 chain with K39S, N65Y, R134E
notes: Expressed from the full-length Image clone and processed to the mature dimer; Purified from conditioned media on SP-sepharose; also called v526
For the molecule B5, the EC50 in [2] came to 0.0445 µg/mL; in experiment [3] it was 16.7 µg/mL; in experiment [4] it was 0.0363 µg/mL; in [5] it was 0.139 µg/mL. Also, the “Fold change vs. wt” value in experiment [6] was determined as 0.416 fold; in experiment [7] it was 5.83 fold; in experiment [8], 0.727 fold; in experiment [9], 0.607 fold.

B6: BMP-7 variant S77T (ligand)
chain: B1 chain with N65Y, S77T, D120S
For the molecule B6, the “BMPRIb binding relative to wild type” value in experiment [10] was 0.9 relative to wt = 1.0. The “BMPRII binding relative to wild type” value in [11] was 0.93 relative to wt = 1.0. The “ActRIIa binding relative to wild type” value in experiment [12] was 0.99 relative to wt = 1.0. Moreover, the “BMPRIa binding relative to wild type” value in experiment [13] was 0.94 relative to wt = 1.0.

B7: BMP-7 variant 565 (Y65N/F93T/R129D) (ligand)
chain: B1 chain with F93T, D120S, R129D
notes: Expressed from the full-length Image clone and processed to the mature dimer; Purified from conditioned media on SP-sepharose; also called v565
For B7, the EC50 in [2] came to 0.0424 µg/mL; in experiment [3] it was 0.392 µg/mL; in experiment [4], 0.0224 µg/mL; in experiment [5], 0.409 µg/mL. Besides, the “Fold change vs. wt” value was determined as 0.397 fold in [6], 0.137 fold in [7], 0.448 fold in [8] and 1.78 fold in [9].

B8: BMP-7 variant I86D (ligand)
chain: B1 chain with N65Y, I86D, D120S
Turning to B8, the “fold reduced affinity relative to wild type” value in experiment [14] is roughly 10 fold.

B9: BMP-7 variant 526 (K39S/S120D/R134E) (ligand)
chain: B1 chain with K39S, N65Y, R134E
notes: Purified variant; also called v526
The molecule B9 gave an EC50 in [1] of 1.19 ng/mL.

B10: BMP-7 variant Q53G (ligand)
chain: B1 chain with Q53G, N65Y, D120S
For the molecule B10, the “fold increased affinity relative to wild type” value in [15] is roughly 10 fold.

B11: BMP-7 variant R134S (ligand)
chain: B1 chain with N65Y, D120S, R134S
In the case of B11, in [10], the “BMPRIb binding relative to wild type” value is 1.15 relative to wt = 1.0. Besides, the “BMPRII binding relative to wild type” value in [11] was 1.07 relative to wt = 1.0. The “ActRIIa binding relative to wild type” value in experiment [12] was 1.17 relative to wt = 1.0. The “BMPRIa binding relative to wild type” value in experiment [13] is 1.1 relative to wt = 1.0.

B12: BMP-7 variant R134P (ligand)
chain: B1 chain with N65Y, D120S, R134P
In the case of B12, the “BMPRIb binding relative to wild type” value in [10] is 0.6 relative to wt = 1.0. Also, in [11], the “BMPRII binding relative to wild type” value is 0.5 relative to wt = 1.0. In [12], the “ActRIIa binding relative to wild type” value was 0.89 relative to wt = 1.0. The “BMPRIa binding relative to wild type” value in [13] was 0.54 relative to wt = 1.0.

B13: BMP-7 variant 504 (Y65N/S120D) (ligand)
chain: B1 chain
notes: Expressed from the full-length Image clone and processed to the mature dimer; Purified from conditioned media on SP-sepharose; also called v504
On to B13, for which the 50% effective concentration (EC50) amounted to 0.0475 µg/mL in experiment [2], 3.4 µg/mL in [3], 0.0185 µg/mL in [4] and 0.222 µg/mL in experiment [5]. The “Fold change vs. wt” value in [6] was 0.445 fold; in [7], 1.19 fold; in experiment [8], 0.371 fold; in [9], 0.969 fold.

B14: BMP-7 variant Q53H (ligand)
chain: B1 chain with Q53H, N65Y, D120S
For the molecule B14, the “fold reduced affinity relative to wild type” value in experiment [14] is roughly 10 fold.

B15: BMP-7 variant M23N (ligand)
chain: B1 chain with M23N, N65Y, D120S
Consider B15, for which the “fold increased affinity relative to wild type” value in [15] was roughly 10 fold.

B16: BMP-7 variant S77P (ligand)
chain: B1 chain with N65Y, S77P, D120S
In the case of B16, the “BMPRIb binding relative to wild type” value in experiment [10] is 0.95 relative to wt = 1.0. In addition, the “BMPRII binding relative to wild type” value in experiment [11] is 0.85 relative to wt = 1.0. Moreover, the “ActRIIa binding relative to wild type” value in [12] was 0.92 relative to wt = 1.0. The “BMPRIa binding relative to wild type” value in experiment [13] is 0.68 relative to wt = 1.0.
